For series [1], the system named is HeLa Kyoto. Briefly: melting temperature (median over replicates), in situ; higher = more thermally stable.
Series [2] concerns HeLa Kyoto. In words: solubility change mitosis vs G1/S (difference of NP-40 vs SDS log2 ratios) (log2 ratio difference); higher = more soluble in mitosis.
Series [3] deals with HeLa Kyoto. In words: solubility in G1/S (NP-40 vs SDS abundance) (log2 ratio); higher = more soluble. The settings on record: cell cycle stage: G1/S.

The text below walks through data of the supplement of paper PMC5998384.
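Wherever melting temperature (median over replicates), in situ is given: HeLa Kyoto cells synchronized by double thymidine or nocodazole block, proteins quantified by TMT10plex mass spectrometry, three independent biological replicates.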
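Wherever solubility change mitosis vs G1/S (difference of NP-40 vs SDS log2 ratios) is given: synchronized HeLa Kyoto cells (double thymidine block for G1/S, nocodazole release for mitosis), protein amounts in NP-40 versus SDS lysates quantified by mass spectrometry, three biological replicates.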
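Wherever solubility in G1/S (NP-40 vs SDS abundance) is given: HeLa Kyoto cells arrested at G1/S by double thymidine block, proteins quantified by TMT10plex mass spectrometry in mild NP-40 versus SDS extracts, three biological replicates.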

Chain of PCBD2 (chain, as listed by the source): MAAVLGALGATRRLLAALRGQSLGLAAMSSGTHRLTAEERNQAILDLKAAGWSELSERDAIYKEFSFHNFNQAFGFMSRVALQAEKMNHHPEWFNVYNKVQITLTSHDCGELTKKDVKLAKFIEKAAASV
Chain of WRN (chain, as listed by the source): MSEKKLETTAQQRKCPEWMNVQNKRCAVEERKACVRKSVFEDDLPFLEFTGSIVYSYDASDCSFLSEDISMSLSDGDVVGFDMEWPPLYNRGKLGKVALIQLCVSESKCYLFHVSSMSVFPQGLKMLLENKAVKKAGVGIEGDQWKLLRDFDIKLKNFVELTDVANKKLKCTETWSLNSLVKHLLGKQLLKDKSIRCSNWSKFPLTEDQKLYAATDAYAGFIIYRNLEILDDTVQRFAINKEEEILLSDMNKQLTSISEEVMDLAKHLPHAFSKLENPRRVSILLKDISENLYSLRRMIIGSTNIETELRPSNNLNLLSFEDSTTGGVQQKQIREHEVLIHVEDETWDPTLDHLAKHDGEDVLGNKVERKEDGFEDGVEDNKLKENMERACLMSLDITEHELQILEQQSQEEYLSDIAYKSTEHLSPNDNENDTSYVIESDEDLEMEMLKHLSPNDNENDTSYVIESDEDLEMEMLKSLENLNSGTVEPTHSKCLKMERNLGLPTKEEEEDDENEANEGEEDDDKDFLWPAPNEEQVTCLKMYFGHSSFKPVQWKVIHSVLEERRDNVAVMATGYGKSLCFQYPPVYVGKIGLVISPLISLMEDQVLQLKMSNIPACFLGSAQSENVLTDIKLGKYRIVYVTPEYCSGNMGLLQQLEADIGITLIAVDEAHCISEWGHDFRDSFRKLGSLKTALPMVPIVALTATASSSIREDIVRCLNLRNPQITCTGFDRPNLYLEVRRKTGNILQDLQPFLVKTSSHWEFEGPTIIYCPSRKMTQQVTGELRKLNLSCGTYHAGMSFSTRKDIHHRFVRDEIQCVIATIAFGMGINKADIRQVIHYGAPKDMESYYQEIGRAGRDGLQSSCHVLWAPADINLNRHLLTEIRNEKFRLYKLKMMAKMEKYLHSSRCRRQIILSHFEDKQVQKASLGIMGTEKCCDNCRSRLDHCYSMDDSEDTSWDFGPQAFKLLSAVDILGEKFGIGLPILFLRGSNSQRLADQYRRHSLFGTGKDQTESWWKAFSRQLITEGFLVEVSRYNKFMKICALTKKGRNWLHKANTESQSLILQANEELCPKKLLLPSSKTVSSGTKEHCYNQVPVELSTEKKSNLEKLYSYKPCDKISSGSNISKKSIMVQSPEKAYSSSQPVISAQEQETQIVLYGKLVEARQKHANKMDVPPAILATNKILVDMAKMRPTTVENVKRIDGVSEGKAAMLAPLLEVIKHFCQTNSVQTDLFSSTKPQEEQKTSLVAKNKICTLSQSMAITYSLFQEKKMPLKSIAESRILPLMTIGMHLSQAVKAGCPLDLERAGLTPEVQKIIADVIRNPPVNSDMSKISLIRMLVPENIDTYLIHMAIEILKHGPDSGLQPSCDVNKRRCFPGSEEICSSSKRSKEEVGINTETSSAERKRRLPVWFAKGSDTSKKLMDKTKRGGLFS
Chain of NEK6 (chain, as listed by the source): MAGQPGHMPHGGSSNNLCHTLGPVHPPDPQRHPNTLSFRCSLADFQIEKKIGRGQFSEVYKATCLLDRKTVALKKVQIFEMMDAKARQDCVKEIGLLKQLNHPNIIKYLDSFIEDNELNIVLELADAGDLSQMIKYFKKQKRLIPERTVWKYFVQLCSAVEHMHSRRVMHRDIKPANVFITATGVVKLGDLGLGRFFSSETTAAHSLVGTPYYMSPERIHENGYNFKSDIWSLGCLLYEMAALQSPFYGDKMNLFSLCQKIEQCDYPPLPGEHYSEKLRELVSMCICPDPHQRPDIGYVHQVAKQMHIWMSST
Chain of PCIF1 (chain, as listed by the source): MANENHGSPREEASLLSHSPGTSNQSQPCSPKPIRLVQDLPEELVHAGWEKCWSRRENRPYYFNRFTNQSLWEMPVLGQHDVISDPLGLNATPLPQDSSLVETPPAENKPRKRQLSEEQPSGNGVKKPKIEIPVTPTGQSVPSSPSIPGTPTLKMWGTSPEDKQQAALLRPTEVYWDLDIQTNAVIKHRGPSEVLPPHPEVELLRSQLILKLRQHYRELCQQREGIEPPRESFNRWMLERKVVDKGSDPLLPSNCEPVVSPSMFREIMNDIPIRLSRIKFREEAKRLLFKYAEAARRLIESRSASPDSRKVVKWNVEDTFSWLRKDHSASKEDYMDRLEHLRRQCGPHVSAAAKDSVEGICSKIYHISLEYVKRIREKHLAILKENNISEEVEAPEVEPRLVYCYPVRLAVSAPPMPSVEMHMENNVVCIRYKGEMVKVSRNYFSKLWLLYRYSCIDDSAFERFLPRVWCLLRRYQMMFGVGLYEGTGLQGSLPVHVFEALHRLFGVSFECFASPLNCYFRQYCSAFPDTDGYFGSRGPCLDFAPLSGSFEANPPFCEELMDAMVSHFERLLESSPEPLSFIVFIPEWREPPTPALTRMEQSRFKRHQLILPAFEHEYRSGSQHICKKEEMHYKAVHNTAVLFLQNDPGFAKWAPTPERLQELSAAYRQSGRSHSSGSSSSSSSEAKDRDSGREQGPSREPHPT
Chain of WWC1 (chain, as listed by the source): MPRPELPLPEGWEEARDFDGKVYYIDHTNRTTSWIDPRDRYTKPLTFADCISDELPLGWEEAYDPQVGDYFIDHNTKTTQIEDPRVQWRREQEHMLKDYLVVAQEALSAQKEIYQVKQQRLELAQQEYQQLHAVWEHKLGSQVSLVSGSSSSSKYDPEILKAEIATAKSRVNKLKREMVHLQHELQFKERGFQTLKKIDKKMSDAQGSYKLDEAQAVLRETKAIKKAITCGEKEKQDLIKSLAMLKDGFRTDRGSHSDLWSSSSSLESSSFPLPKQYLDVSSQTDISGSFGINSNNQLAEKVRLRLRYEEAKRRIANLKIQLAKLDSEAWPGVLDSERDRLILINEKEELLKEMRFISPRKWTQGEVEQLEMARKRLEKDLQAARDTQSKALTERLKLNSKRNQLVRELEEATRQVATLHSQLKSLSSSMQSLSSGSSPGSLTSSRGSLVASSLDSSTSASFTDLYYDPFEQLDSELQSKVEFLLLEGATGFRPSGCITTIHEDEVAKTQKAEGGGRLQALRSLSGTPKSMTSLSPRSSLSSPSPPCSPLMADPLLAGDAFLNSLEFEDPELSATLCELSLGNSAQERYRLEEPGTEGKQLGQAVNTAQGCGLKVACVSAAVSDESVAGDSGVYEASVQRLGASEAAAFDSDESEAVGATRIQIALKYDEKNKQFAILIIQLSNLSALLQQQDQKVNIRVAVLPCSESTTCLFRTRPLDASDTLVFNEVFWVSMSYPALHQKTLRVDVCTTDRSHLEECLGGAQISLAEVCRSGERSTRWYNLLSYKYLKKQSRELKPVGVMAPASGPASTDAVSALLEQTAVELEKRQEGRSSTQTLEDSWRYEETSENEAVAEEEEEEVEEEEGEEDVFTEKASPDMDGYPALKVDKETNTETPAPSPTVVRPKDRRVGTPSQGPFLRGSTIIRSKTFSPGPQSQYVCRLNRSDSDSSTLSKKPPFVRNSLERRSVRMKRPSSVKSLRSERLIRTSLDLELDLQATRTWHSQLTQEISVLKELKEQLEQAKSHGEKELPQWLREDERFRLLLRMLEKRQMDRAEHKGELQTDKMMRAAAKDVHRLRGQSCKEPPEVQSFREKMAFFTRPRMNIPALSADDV

As to ASAP2, the melting temperature in the series on HeLa Kyoto [1] (cell cycle stage: G1/S) worked out at 50.7 °C; in the series with HeLa Kyoto [1] (cell cycle stage: mitosis), 51.4 °C. In addition, the “solubility change mitosis (log2)” value with HeLa Kyoto [2] was -0.37. The “solubility in G1/S (log2)” value in the series with HeLa Kyoto [3] worked out at 0.122.

ATG2B had a melting temperature with HeLa Kyoto [1] (cell cycle stage: mitosis) of 53.4 °C. Also, the “solubility change mitosis (log2)” value in the series with HeLa Kyoto [2] worked out at 0.00813. For the same substance, the “solubility in G1/S (log2)” value in the series with HeLa Kyoto [3] was -0.312.

On to CEP250, for which the melting temperature in the series on HeLa Kyoto [1] (cell cycle stage: G1/S) came out at 51 °C; in the series with HeLa Kyoto [1] (cell cycle stage: mitosis) it was 50.8 °C. The “solubility change mitosis (log2)” value with HeLa Kyoto [2] is 0.272. Moreover, the “solubility in G1/S (log2)” value with HeLa Kyoto [3] is -0.0371.

With KIF13B, the results for the melting temperature with HeLa Kyoto [1] (cell cycle stage: G1/S) and with HeLa Kyoto [1] (cell cycle stage: mitosis) were 50.2 °C and 50.3 °C, respectively. Also, the “solubility change mitosis (log2)” value in the series on HeLa Kyoto [2] was -0.193. The “solubility in G1/S (log2)” value with HeLa Kyoto [3] was -0.0369.

On to “MAAAAPGNGRASAPRLLLLFLVPLLWAPAAVRAGPDEDLSHRNKEPPAPAQQLQPQPVAVQGPEPARVEKIFTPAAPVHTNKEDPATQTNLGFIHAFVAAISVIIVSELGDKTFFIAAIMAMRYNRLTVLAGAMLALGLMTCLSVLFGYATTVIPRVYTYYVSTVLFAIFGIRMLREGLKMSPDEGQEELEEVQAELKKKDEEFQRTKLLNGPGDVETGTSITVPQKKWLHFISPIFVQALTLTFLAEWGDRSQLTTIVLAAREDPYGVAVGGTVGHCLCTGLAVIGGRMIAQKISVRTVTIIGGIVFLAFAFSALFISPDSGF [TMEM165]”, for which the melting temperature worked out at 60.8 °C with HeLa Kyoto [1] (cell cycle stage: G1/S) and 56.9 °C with HeLa Kyoto [1] (cell cycle stage: mitosis). In the series with HeLa Kyoto [2], the “solubility change mitosis (log2)” value is -0.178. Further, the “solubility in G1/S (log2)” value in the series on HeLa Kyoto [3] came out at 0.0487.

Turning to “MAAAPQAPGRGSLRKTRPLVVKTSLNNPYIIRWSALESEDMHFILQTLEDRLKAIGLQKIEDKKKKNKTPFLKKESREKCSIAVDISENLKEKKTDAKQQVSGWTPAHVRKQLAIGVNEVTRALERRELLLVLVCKSVKPAMITSHLIQLSLSRSVPACQVPRLSERIAPVIGLKCVLALAFKKNTTDFVDEVRAIIPRVPSLSVPWLQDRIEDSGENLETEPLESQDRELLDTSFEDLSKPKRKLADGRQASVTLQPLKIKKLIPNPNKIRKPPKSKKATPK [RPP38]”, the melting temperature in the series on HeLa Kyoto [1] (cell cycle stage: G1/S) is 53.1 °C; in the series on HeLa Kyoto [1] (cell cycle stage: mitosis), 51.7 °C. The “solubility change mitosis (log2)” value in the series on HeLa Kyoto [2] was -0.0549. For the same substance, the “solubility in G1/S (log2)” value in the series with HeLa Kyoto [3] came to 0.342.

For “MAAFRDIEEVSQGLLSLLGANRAEAQQRRLLGRHEQVVERLLETQDGAEKQLREILTMEKEVAQSLLNAKEQVHQGGVELQQLEAGLQEAGEEDTRLKASLLQLTRELEELKEIEADLERQEKEVDEDTTVTIPSAVYVAQLYHQVSKIEWDYECEPGMVKGIHHGPSVAQPIHLDSTQLSRKFISDYLWSLVDTEW [SPC24]”, the melting temperature in the series with HeLa Kyoto [1] (cell cycle stage: G1/S) was determined as 49.2 °C; in the series with HeLa Kyoto [1] (cell cycle stage: mitosis), 49.4 °C. Further, in the series on HeLa Kyoto [2], the “solubility change mitosis (log2)” value came to 0.363. Besides, the “solubility in G1/S (log2)” value with HeLa Kyoto [3] is -0.0462.

On to “MVRTKADSVPGTYRKVVAARAPRKVLGSSTSATNSTSVSSRKAENKYAGGNPVCVRPTPKWQKGIGEFFRLSPKDSEKENQIPEEAGSSGLGKAKRKACPLQPDHTNDEKE [KIAA0101]”, for which, in the series with HeLa Kyoto [2], the “solubility change mitosis (log2)” value worked out at 0.256. For the same substance, the “solubility in G1/S (log2)” value in the series on HeLa Kyoto [3] was -0.0358.

Regarding “MVVLRSSLELHNHSAASATGSLDLSSDFLSLEHIGRRRLRSAGAAQKKPAATTAKAGDGSSVKEVETYHRTRALRSLRKDAQNSSDSSFEKNVEITEQLANGRHFTRQLARQQADKKKEEHREDKVIPVTRSLRARNIVQSTEHLHEDNGDVEVRRSCRIRSRYSGVNQSMLFDKLITNTAEAVLQKMDDMKKMRRQRMRELEDLGVFNETEESNLNMYTRGKQKDIQRTDEETTDNQEGSVESSEEGEDQEHEDDGEDEDDEDDDDDDDDDDDDDDEDDEDEEDGEEENQKRYYLRQRKATVYYQAPLEKPRHQRKPNIFYSGPASPARPRYRLSSAGPRSPYCKRMNRRRHAIHSSDSTSSSSSEDEQHFERRRKRSRNRAINRCLPLNFRKDELKGIYKDRMKIGASLADVDPMQLDSSVRFDSVGGLSNHIAALKEMVVFPLLYPEVFEKFKIQPPRGCLFYGPPGTGKTLVARALANECSQGDKRVAFFMRKGADCLSKWVGESERQLRLLFDQAYQMRPSIIFFDEIDGLAPVRSSRQDQIHSSIVSTLLALMDGLDSRGEIVVIGATNRLDSIDPALRRPGRFDREFLFSLPDKEARKEILKIHTRDWNPKPLDTFLEELAENCVGYCGADIKSICAEAALCALRRRYPQIYTTSEKLQLDLSSINISAKDFEVAMQKMIPASQRAVTSPGQALSTVVKPLLQNTVDKILEALQRVFPHAEFRTNKTLDSDISCPLLESDLAYSDDDVPSVYENGLSQKSSHKAKDNFNFLHLNRNACYQPMSFRPRILIVGEPGFGQGSHLAPAVIHALEKFTVYTLDIPVLFGVSTTSPEETCAQVIREAKRTAPSIVYVPHIHVWWEIVGPTLKATFTTLLQNIPSFAPVLLLATSDKPHSALPEEVQELFIRDYGEIFNVQLPDKEERTKFFEDLILKQAAKPPISKKKAVLQALEVLPVAPPPEPRSLTAEEVKRLEEQEEDTFRELRIFLRNVTHRLAIDKRFRVFTKPVDPDEVPDYVTVIKQPMDLSSVISKIDLHKYLTVKDYLRDIDLICSNALEYNPDRDPGDRLIRHRACALRDTAYAIIKEELDEDFEQLCEEIQESRKKRGCSSSKYAPSYYHVMPKQNSTLVGDKRSDPEQNEKLKTPSTPVACSTPAQLKRKIRKKSNWYLGTIKKRRKISQAKDDSQNAIDHKIESDTEETQDTSVDHNETGNTGESSVEENEKQQNASESKLELRNNSNTCNIENELEDSRKTTACTELRDKIACNGDASSSQIIHISDENEGKEMCVLRMTRARRSQVEQQQLITVEKALAILSQPTPSLVVDHERLKNLLKTVVKKSQNYNIFQLENLYAVISQCIYRHRKDHDKTSLIQKMEQEVENFSCSR [ATAD2]”, in the series on HeLa Kyoto [2], the “solubility change mitosis (log2)” value amounted to 2.36. The “solubility in G1/S (log2)” value in the series with HeLa Kyoto [3] is -3.07.

Turning to “MVYISNGQVLDSRSQSPWRLSLITDFFWGIAEFVVLFFKTLLQQDVKKRRSYGNSSDSRYDDGRGPPGNPPRRMGRINHLRGPSPPPMAGGUGR [SELK]”, the “solubility change mitosis (log2)” value in the series with HeLa Kyoto [2] is 0.31. In addition, the “solubility in G1/S (log2)” value with HeLa Kyoto [3] came to 0.000519.

For “MWCLHCNSERTQSLLELELDSGVEGEAPSSETGTSLDSPSAYPQGPLVPGSSLSPDHYEHTSVGAYGLYSGPPGQQQRTRRPKLQHSTSILRKQAEEEAIKRSRSLSESYELSSDLQDKQVEMLERKYGGRLVTRHAARTIQTAFRQYQMNKNFERLRSSMSENRMSRRIVLSNMRMQFSFEGPEKVHSSYFEGKQVSVTNDGSQLGALVSPECGDLSEPTTLKSPAPSSDFADAITELEDAFSRQVKSLAESIDDALNCRSLHTEEAPALDAARARDTEPQTALHGMDHRKLDEMTASYSDVTLYIDEEELSPPLPLSQAGDRPSSTESDLRLRAGGAAPDYWALAHKEDKADTDTSCRSTPSLERQEQRLRVEHLPLLTIEPPSDSSVDLSDRSERGSLKRQSAYERSLGGQQGSPKHGPHSGAPKSLPREEPELRPRPPRPLDSHLAINGSANRQSKSESDYSDGDNDSINSTSNSNDTINCSSESSSRDSLREQTLSKQTYHKEARNSWDSPAFSNDVIRKRHYRIGLNLFNKKPEKGVQYLIERGFVPDTPVGVAHFLLQRKGLSRQMIGEFLGNRQKQFNRDVLDCVVDEMDFSTMELDEALRKFQAHIRVQGEAQKVERLIEAFSQRYCICNPGVVRQFRNPDTIFILAFAIILLNTDMYSPNVKPERKMKLEDFIKNLRGVDDGEDIPREMLMGIYERIRKRELKTNEDHVSQVQKVEKLIVGKKPIGSLHPGLGCVLSLPHRRLVCYCRLFEVPDPNKPQKLGLHQREIFLFNDLLVVTKIFQKKKNSVTYSFRQSFSLYGMQVLLFENQYYPNGIRLTSSVPGADIKVLINFNAPNPQDRKKFTDDLRESIAEVQEMEKHRIESELEKQKGVVRPSMSQCSSLKKESGNGTLSRACLDDSYASGEGLKRSALSSSLRDLSEAGKRGRRSSAGSLESNVEFQPFEPLQPSVLCS [IQSEC1]”, the “solubility change mitosis (log2)” value in the series on HeLa Kyoto [2] was -0.0422. The “solubility in G1/S (log2)” value with HeLa Kyoto [3] is -0.0654.

NEK6: the “solubility change mitosis (log2)” value in the series on HeLa Kyoto [2] is -0.09. Also, the “solubility in G1/S (log2)” value with HeLa Kyoto [3] is 0.1.

Consider NISCH, for which the “solubility change mitosis (log2)” value with HeLa Kyoto [2] was found to be 0.0432. The “solubility in G1/S (log2)” value in the series with HeLa Kyoto [3] was -0.0187.

On to PCBD2, for which the “solubility change mitosis (log2)” value with HeLa Kyoto [2] worked out at 0.0587. In addition, in the series on HeLa Kyoto [3], the “solubility in G1/S (log2)” value was -0.0388.

As for PCIF1, the “solubility change mitosis (log2)” value with HeLa Kyoto [2] was -0.0368. Moreover, the “solubility in G1/S (log2)” value in the series on HeLa Kyoto [3] was 0.0856.

For the substance PRR12, the “solubility change mitosis (log2)” value in the series with HeLa Kyoto [2] was 0.0459. The “solubility in G1/S (log2)” value in the series with HeLa Kyoto [3] turned out to be 0.163.

On to RAI1, for which, in the series on HeLa Kyoto [2], the “solubility change mitosis (log2)” value amounted to 0.596. Moreover, in the series on HeLa Kyoto [3], the “solubility in G1/S (log2)” value is -0.769.

On to SOGA1, for which the “solubility change mitosis (log2)” value in the series with HeLa Kyoto [2] was 0.0556. Also, the “solubility in G1/S (log2)” value in the series on HeLa Kyoto [3] is -0.0256.

SYNE1: the “solubility change mitosis (log2)” value in the series with HeLa Kyoto [2] was determined as 0.198. For the same substance, the “solubility in G1/S (log2)” value in the series with HeLa Kyoto [3] is -0.526.

Take TAF1: the “solubility change mitosis (log2)” value with HeLa Kyoto [2] worked out at 0.0526. In the series on HeLa Kyoto [3], the “solubility in G1/S (log2)” value was -0.408.

Consider WDR81, for which the “solubility change mitosis (log2)” value in the series with HeLa Kyoto [2] is -0.333. Moreover, in the series on HeLa Kyoto [3], the “solubility in G1/S (log2)” value was -0.0834.

As to WRN, the “solubility change mitosis (log2)” value with HeLa Kyoto [2] was 0.124. Further, in the series with HeLa Kyoto [3], the “solubility in G1/S (log2)” value was -0.339.

As for WWC1, the “solubility change mitosis (log2)” value in the series with HeLa Kyoto [2] was -0.4. Besides, the “solubility in G1/S (log2)” value with HeLa Kyoto [3] was -0.00567.

In the case of WWP1, in the series with HeLa Kyoto [2], the “solubility change mitosis (log2)” value was determined as 0.0121. For the same substance, the “solubility in G1/S (log2)” value with HeLa Kyoto [3] is -0.159.
